The values that follow come from doi:10.64898/2025.12.19.695307 (bioRxiv, 2025).

Positions count from the first letter of the chain named.

B1: C092 (antibody, V domains shown)
VH: QVQLVQSGAEVKKPGSSVKVSCKASGGSFTNHFISWVRQAPGQGLEWMGRIIPILGTANYAQNFQGRVMMTADKSTSTAYMELSSLRSEDTAVYYCARDSGYSGYGSTYYMDVWGKGTTVTVSS
VL: QSVLTQPPSVSGAPGQRVTISCTGSNSNIGAGYDVHWYQQLPGAAPKLLIYGNNNRPSGVPDRFSGSKSDTSASLAITGLQVEDEADYYCQSYDSSLSDSVFGSGTKVTVL
B2: C807 (antibody, V domains shown)
VH: QVQLVQSGAEAKKPGSSVKVSCKASGGTFKSYIINWVRQAPGQGLEWMGEIIPIFGTANYAQKFQGRVTSTADESTSTAYMELSSLKSEDTAVYYCARGRGYSGYGASYYFDYWGQGTLVTVSS
VL: B1 VL with A44T, G52A, N54S, D70G, V82A, S96G, D99G, S104G, V108L
B3: R1-32 (antibody, V domains shown)
VH: EVQLVESGAEVKKPGSSVKVSCKASGGTFSSYAISWVRQAPGQGLEWMGGIIPILGIANYAQKFQGRVTITADKSTSTAYMELSSLRSEDTAVYYCARENGYSGYGAAANFDLWGRGTLVTVSS
VL: B1 VL with N26S, A44T, N54S, D70G, V82A, D99G, S104G, V108L
B4: BD56-597 (antibody, V domains shown)
VH: QVQLVQSGAEVKKPGSSVKVSCKASGGTFSTYPISWVRQAPGQGVEWMGAIIPILGTTDYAQIFQGRVTITADKSTSTAYMELSSLRPEDTAVYYCARERGYSGYGAAYYFDSWGQGTLVTVSS
VL: B1 VL with N26D, A44T, G52V, N54I, D70A, V82A, D99G, S100V, S104G, V108L
B5: ZL525 (antibody, V domains shown)
V domain 1: QVQLVQSGAEVKKPGSSMKVSCQASGGTFSSHPISWIRQAPGQGLEWMGRIIPIAGMTDYGQKFQGRITITADTSTSTSYVELRGLRSQDTAFYYCAKDVGYSDYGSAYYFHTWGQGTLITVSS
V domain 2: QSVLTQPPSVSGAPGQRVTISCTGSNSNIGAGYDVHWYQQLPGTAPKLLIYRNNKRPSGVPDRFSGSKSDTSASLAITGLQAEDEAHYYCQSFDSSLGGSLFGGGTKLAVL
B6: BD56-104 (antibody, V domains shown)
VH: QVQLVQSGAEVKTPGSSVKVSCKASGGTFGSHSITWVRQAPGQGLEWMGRVIPILGIPDFAESFQGRVAITADRSTSTAHMELSRLRSEDTAVYYCARDVGYSGSGSSNYFDSWGQGTLVTVSS
VL: QSVLTQPPSVSGAPGQRVTISCTGSNSNIGAGYDVHWYRQLPGTAPKLLIYVNNNRPSGVPDRFSGSRSGASASLAITGLQAEDEAEYYCQSYDSSLSGSIFGGGTKLTVL
B7: R1-32-AAM (R1-32-artificial-affinity-matured) (antibody, V domains shown)
VH: B3 VH with A33F, N59D, Q62E, A109Y
VL: B1 VL with N26D, A44T, N54S, V82A, S104G, V108L
B8: BD56-104-R1-32 HCDR3 (antibody, V domains shown)
VH: B6 VH with D99E, V100N, S105Y, S107A, S108A, N109A, Y110N, S113L
VL: B6 VL

The first assay concerns the target Bat-RaTG13 RBD (Bat coronavirus RaTG13, UniProt A0ABF7PLN6). Briefly: BLI.
B1: the binding result was “binds”.

With B2, the binding result is given as “binds”.

In the case of B3, the binding result is recorded as “binds”.

On to B4, for which the binding result is given as “binds”.

On to B5, for which the binding result is listed as “binds”.

As to B6, the binding result is reported as “binds”.

The target in another assay is SARS-CoV-2 wild-type RBD (SARS-CoV-2, UniProt P0DTC2). Briefly: BLI.
With B1, the binding result is “binds”.

In the case of B7, the binding result was “binds”.

With B2, the binding result is “binds”.

In the case of B3, the binding result is given as “binds”.

Consider B4, for which the binding result is “binds”.

On to B5, for which the binding result is “binds”.

For B8, the binding result is listed as “binds”.

Turning to B6, the binding result is given as “binds”.

The next assay deals with SARS-CoV-1 RBD (SARS-CoV-1, strain not named, UniProt P59594). The assay can be described thus: BLI. In general terms: In BLI a coated tip is dipped into the sample, and binding shifts an interference pattern.
In the case of B5, the binding result is reported as “binds”.

Another assay has as its target Bat-RsSHC014 RBD (Bat SARS-like coronavirus RsSHC014, UniProt U5WLK5). Briefly: BLI.
With B1, the binding result is “binds”.

Consider B2, for which the binding result is “binds”.

In the case of B3, the binding result was “binds”.

In the case of B4, the binding result is on record as “binds”.

With B5, the binding result is on record as “binds”.

Regarding B6, the binding result is “binds”.

A further assay has as its target HeB2013 RBD (SARSr-CoV BtRf-BetaCoV/HeB2013). Briefly: BLI.
On to B1, for which the binding result was “binds”.

As to B2, the binding result is “binds”.

With B4, the binding result is recorded as “binds”.

For the molecule B5, the binding result is recorded as “binds”.

As to B6, the binding result is given as “binds”.

The next assay has as its target GX2013 RBD (SARSr-CoV BtRs-BetaCoV/GX2013). Briefly: BLI.
As for B1, the binding result is “binds”.

With B2, the binding result is “binds”.

For the molecule B4, the binding result is listed as “binds”.

In the case of B5, the binding result is given as “binds”.

Consider B6, for which the binding result is “binds”.

In a further assay the target is Bat-WIV1 RBD (Bat SARS-like coronavirus WIV1, UniProt U5WI05). The assay can be described thus: BLI.
Regarding B1, the binding result is reported as “binds”.

For B2, the binding result was “binds”.

On to B4, for which the binding result is given as “binds”.

As to B5, the binding result is reported as “binds”.

For the molecule B6, the binding result is reported as “no binding (tested: 200 nM RBD)”.
